Columns and labels:
[1] = biological target: VosA_(1–190) dead, quadruple mutant of VosA with the mutations K37A, K39A, R41A, and K42A (A. nidulans); assay: SEC-MALS; size exclusion chromatography and subsequent mass determination using MALS
[2] = biological target: VosA_(1–190), minimal velvet domain of VosA encompassing residues 1–190 (A. nidulans); assay: as above
[3] = biological target: VosA_(1–190), minimal velvet domain of VosA encompassing residues 1–190 (A. nidulans); assay: SEC; Superdex 200 (16/60) gel filtration column; elution volumes compared
VosA1-190 (VosA_cryst) = biological target: T1, VosA1-190 (VosA_cryst) (Aspergillus nidulans, UniProt Q5BBX1 1-190); assay: EMSA; weaker than VosA_N; EMSA: 10 mM HEPES/NaOH pH 7.4, 150 mM NaCl, ~53 pmol DNA in 10 ul, RT 15 min; DNA:protein molar ratios 1:0.3 to 1:9; 6% PAGE, 0.5% TBE, ethidium bromide; conditions: protein: recombinant; tags: Strep-tag (C-terminal); chain copies: 2; blunt
T1 sequence: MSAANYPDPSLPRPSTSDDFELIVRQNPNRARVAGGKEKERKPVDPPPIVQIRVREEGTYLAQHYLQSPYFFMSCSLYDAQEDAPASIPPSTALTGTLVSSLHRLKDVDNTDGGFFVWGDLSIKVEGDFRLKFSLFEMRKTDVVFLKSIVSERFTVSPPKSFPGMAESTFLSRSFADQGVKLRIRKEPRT

VeA1-224 = biological target: T2, VeA1-224 (Aspergillus nidulans, UniProt C8VTV4 1-224); assay: EMSA; binds as well as VosA1-190; EMSA: 10 mM HEPES/NaOH pH 7.4, 150 mM NaCl, ~53 pmol DNA in 10 ul, RT 15 min; DNA:protein molar ratios 1:0.3 to 1:9; 6% PAGE, 0.5% TBE, ethidium bromide; conditions: protein: recombinant; tags: Strep-tag (C-terminal); blunt
T2 sequence: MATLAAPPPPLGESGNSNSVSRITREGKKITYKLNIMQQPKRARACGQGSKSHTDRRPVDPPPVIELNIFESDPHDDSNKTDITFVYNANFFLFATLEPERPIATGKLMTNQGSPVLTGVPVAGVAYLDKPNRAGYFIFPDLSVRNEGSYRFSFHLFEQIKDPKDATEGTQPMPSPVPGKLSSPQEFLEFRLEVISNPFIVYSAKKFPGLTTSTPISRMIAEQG

VosA_N = biological target: T3, VosA_N (Aspergillus nidulans, UniProt Q5BBX1 1-216); assay: EMSA; EMSA: 10 mM HEPES/NaOH pH 7.4, 150 mM NaCl, ~53 pmol DNA in 10 ul, RT 15 min; DNA:protein molar ratios 1:0.3 to 1:9; 6% PAGE, 0.5% TBE, ethidium bromide; conditions: protein: recombinant; tags: GST (N-terminal, pGEX-4T-3); chain copies: 2; blunt
T3 sequence: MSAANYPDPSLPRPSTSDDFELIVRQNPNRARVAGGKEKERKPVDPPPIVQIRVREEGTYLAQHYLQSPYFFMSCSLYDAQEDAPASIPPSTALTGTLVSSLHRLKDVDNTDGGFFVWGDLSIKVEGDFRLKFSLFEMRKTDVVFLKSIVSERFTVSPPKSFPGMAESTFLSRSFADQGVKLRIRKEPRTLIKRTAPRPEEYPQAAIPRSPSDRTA

VelB = VelB (Aspergillus nidulans, UniProt C8VTS4 1-369); assay: as above; conditions: protein: recombinant; tags: His6 (C-terminal); blunt
VelB, sequence (C8VTS4 whole entry): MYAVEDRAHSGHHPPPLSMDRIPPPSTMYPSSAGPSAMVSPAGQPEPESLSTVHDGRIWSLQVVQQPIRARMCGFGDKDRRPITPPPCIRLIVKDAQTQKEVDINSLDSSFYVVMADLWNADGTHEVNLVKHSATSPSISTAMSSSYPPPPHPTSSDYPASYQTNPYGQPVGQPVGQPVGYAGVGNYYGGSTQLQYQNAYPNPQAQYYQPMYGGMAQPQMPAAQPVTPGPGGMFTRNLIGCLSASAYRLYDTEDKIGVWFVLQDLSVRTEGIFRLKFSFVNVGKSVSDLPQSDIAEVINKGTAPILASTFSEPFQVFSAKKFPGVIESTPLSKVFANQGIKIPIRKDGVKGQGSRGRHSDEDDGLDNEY

VosA full-length = biological target: T4, VosA full-length (Aspergillus nidulans, UniProt Q5BBX1 1-430); assay: as above; conditions: protein: recombinant; tags: GST (N-terminal, pGEX-5X-1); chain copies: 2; blunt
T4 sequence: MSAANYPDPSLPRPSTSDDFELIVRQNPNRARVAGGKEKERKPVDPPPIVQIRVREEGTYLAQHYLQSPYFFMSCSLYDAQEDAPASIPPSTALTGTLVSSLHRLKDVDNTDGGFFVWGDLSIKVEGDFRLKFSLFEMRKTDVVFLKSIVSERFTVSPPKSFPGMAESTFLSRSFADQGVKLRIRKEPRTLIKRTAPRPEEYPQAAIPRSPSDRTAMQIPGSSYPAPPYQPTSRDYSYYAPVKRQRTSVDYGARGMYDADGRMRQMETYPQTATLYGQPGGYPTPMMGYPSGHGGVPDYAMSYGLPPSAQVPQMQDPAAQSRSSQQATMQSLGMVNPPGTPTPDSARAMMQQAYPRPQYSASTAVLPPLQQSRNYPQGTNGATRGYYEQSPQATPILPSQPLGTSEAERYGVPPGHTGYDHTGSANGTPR

For “VosA_(1–190) dead, quadruple mutant of VosA with the mutations K37A, K39A, R41A, and K42A (domain or fragment)”, which stoichiometry N [1] is on record?
Its stoichiometry N is 2.

What does the source list for “VosA_(1–190), minimal velvet domain of VosA encompassing residues 1–190 (domain or fragment)”?
stoichiometry N [2]: 2; stoichiometry N [3]: 2

B1: brlA 35 bp probe (OHS301/302) (dsDNA)
DNA 1: ATTCGGCGACTAGGATCTTACTGGCCGCGGCCGAG
DNA 2: CTCGGCCGCGGCCAGTAAGATCCTAGTCGCCGAAT
Does B1 bind (VosA1-190 (VosA_cryst))?
Result: binds

Does B1 bind (VeA1-224)?
Result: binds

Does B1 bind (VosA_N)?
Result: binds

Does B1 bind (VelB)?
Result: no binding

Does B1 bind (VosA full-length)?
Result: binds

— paper PMC3876986, “The Velvet Family of Fungal Regulators Contains a DNA-Binding Domain Structurally Similar to NF-κB”
